Experimental data as given in the Human Domainome abundance scans (Beltran et al. 2025).
± gives the uncertainty stated by the source.

B1: Peroxisome proliferator-activated receptor delta, residues 71 to 145; numbered along this chain, Q03181 (parent)
chain: NMECRVCGDKASGFHYGVHACEGCKGFFRRTIRMKLEYEKCERSCKIQKKNRNKCQYCRFQKCLALGMSHNAIRF

Variants of: B1
Test: abundance fitness (aPCA) (normalised: wild type 0, dead -1); higher = more abundant; growth selection in yeast, the domain comes from the species named
Details: Homo sapiens

Variant	abundance fitness
NMECRVCGDKASGFHYGDHACEGCKGFFRRTIRMKLEYEKCERSCKIQKKNRNKCQYCRFQKCLALGMSHNAIRF	-0.396 ± 0.082
NMECRVCGDKASGFHYGAHACEGCKGFFRRTIRMKLEYEKCERSCKIQKKNRNKCQYCRFQKCLALGMSHNAIRF	-0.104 ± 0.044
NMECRVCGDKASGFHYGRHACEGCKGFFRRTIRMKLEYEKCERSCKIQKKNRNKCQYCRFQKCLALGMSHNAIRF	-0.671 ± 0.067
NMECRVCGDKASGFHYGLHACEGCKGFFRRTIRMKLEYEKCERSCKIQKKNRNKCQYCRFQKCLALGMSHNAIRF	-0.258 ± 0.044
NMECRVCGDKASGFHYGNHACEGCKGFFRRTIRMKLEYEKCERSCKIQKKNRNKCQYCRFQKCLALGMSHNAIRF	-0.372 ± 0.14
NMECRVCGDKASGFHYGYHACEGCKGFFRRTIRMKLEYEKCERSCKIQKKNRNKCQYCRFQKCLALGMSHNAIRF	-0.652 ± 0.14
NMECRVCGDKASGFHYGIHACEGCKGFFRRTIRMKLEYEKCERSCKIQKKNRNKCQYCRFQKCLALGMSHNAIRF	-0.051 ± 0.074
NMECRVCGDKASGFHYGHHACEGCKGFFRRTIRMKLEYEKCERSCKIQKKNRNKCQYCRFQKCLALGMSHNAIRF	-0.764 ± 0.27
NMECRVCGDKASGFHYGFHACEGCKGFFRRTIRMKLEYEKCERSCKIQKKNRNKCQYCRFQKCLALGMSHNAIRF	-0.527 ± 0.16
NMECRVCGDKASGFHYGSHACEGCKGFFRRTIRMKLEYEKCERSCKIQKKNRNKCQYCRFQKCLALGMSHNAIRF	-0.505 ± 0.066
NMECRVCGDKASGFHYGWHACEGCKGFFRRTIRMKLEYEKCERSCKIQKKNRNKCQYCRFQKCLALGMSHNAIRF	-0.721 ± 0.11
NMECRVCGDKASGFHYGPHACEGCKGFFRRTIRMKLEYEKCERSCKIQKKNRNKCQYCRFQKCLALGMSHNAIRF	-0.492 ± 0.075
NMECRVCGDKASGFHYGCHACEGCKGFFRRTIRMKLEYEKCERSCKIQKKNRNKCQYCRFQKCLALGMSHNAIRF	-0.145 ± 0.066
NMECRVCGDKASGFHYGEHACEGCKGFFRRTIRMKLEYEKCERSCKIQKKNRNKCQYCRFQKCLALGMSHNAIRF	-0.398 ± 0.063
NMECRVCGDKASGFHYGQHACEGCKGFFRRTIRMKLEYEKCERSCKIQKKNRNKCQYCRFQKCLALGMSHNAIRF	-0.39 ± 0.082
NMECRVCGDKASGFHYGVAACEGCKGFFRRTIRMKLEYEKCERSCKIQKKNRNKCQYCRFQKCLALGMSHNAIRF	0.11 ± 0.037
NMECRVCGDKASGFHYGVFACEGCKGFFRRTIRMKLEYEKCERSCKIQKKNRNKCQYCRFQKCLALGMSHNAIRF	0.247 ± 0.095
NMECRVCGDKASGFHYGVNACEGCKGFFRRTIRMKLEYEKCERSCKIQKKNRNKCQYCRFQKCLALGMSHNAIRF	0.063 ± 0.065
NMECRVCGDKASGFHYGVGACEGCKGFFRRTIRMKLEYEKCERSCKIQKKNRNKCQYCRFQKCLALGMSHNAIRF	-0.205 ± 0.041

Variant	abundance fitness
NMECRVCGDKASGFHYGVEACEGCKGFFRRTIRMKLEYEKCERSCKIQKKNRNKCQYCRFQKCLALGMSHNAIRF	0.136 ± 0.046
NMECRVCGDKASGFHYGVDACEGCKGFFRRTIRMKLEYEKCERSCKIQKKNRNKCQYCRFQKCLALGMSHNAIRF	0.205 ± 0.059
NMECRVCGDKASGFHYGVIACEGCKGFFRRTIRMKLEYEKCERSCKIQKKNRNKCQYCRFQKCLALGMSHNAIRF	0.009 ± 0.073
NMECRVCGDKASGFHYGVPACEGCKGFFRRTIRMKLEYEKCERSCKIQKKNRNKCQYCRFQKCLALGMSHNAIRF	-0.028 ± 0.042
NMECRVCGDKASGFHYGVCACEGCKGFFRRTIRMKLEYEKCERSCKIQKKNRNKCQYCRFQKCLALGMSHNAIRF	0.014 ± 0.058
NMECRVCGDKASGFHYGVSACEGCKGFFRRTIRMKLEYEKCERSCKIQKKNRNKCQYCRFQKCLALGMSHNAIRF	0.046 ± 0.037
NMECRVCGDKASGFHYGVRACEGCKGFFRRTIRMKLEYEKCERSCKIQKKNRNKCQYCRFQKCLALGMSHNAIRF	-0.049 ± 0.032
NMECRVCGDKASGFHYGVQACEGCKGFFRRTIRMKLEYEKCERSCKIQKKNRNKCQYCRFQKCLALGMSHNAIRF	0.131 ± 0.047
NMECRVCGDKASGFHYGVMACEGCKGFFRRTIRMKLEYEKCERSCKIQKKNRNKCQYCRFQKCLALGMSHNAIRF	0.122 ± 0.047
NMECRVCGDKASGFHYGVKACEGCKGFFRRTIRMKLEYEKCERSCKIQKKNRNKCQYCRFQKCLALGMSHNAIRF	-0.047 ± 0.056
NMECRVCGDKASGFHYRVHACEGCKGFFRRTIRMKLEYEKCERSCKIQKKNRNKCQYCRFQKCLALGMSHNAIRF	-0.777 ± 0.076
NMECRVCGDKASGFHYNVHACEGCKGFFRRTIRMKLEYEKCERSCKIQKKNRNKCQYCRFQKCLALGMSHNAIRF	-0.238 ± 0.1
NMECRVCGDKASGFHYWVHACEGCKGFFRRTIRMKLEYEKCERSCKIQKKNRNKCQYCRFQKCLALGMSHNAIRF	-0.918 ± 0.13
NMECRVCGDKASGFHYSVHACEGCKGFFRRTIRMKLEYEKCERSCKIQKKNRNKCQYCRFQKCLALGMSHNAIRF	-0.448 ± 0.056
NMECRVCGDKASGFHYPVHACEGCKGFFRRTIRMKLEYEKCERSCKIQKKNRNKCQYCRFQKCLALGMSHNAIRF	-0.527 ± 0.067
NMECRVCGDKASGFHYQVHACEGCKGFFRRTIRMKLEYEKCERSCKIQKKNRNKCQYCRFQKCLALGMSHNAIRF	-0.248 ± 0.061
NMECRVCGDKASGFHYVVHACEGCKGFFRRTIRMKLEYEKCERSCKIQKKNRNKCQYCRFQKCLALGMSHNAIRF	-0.647 ± 0.078
NMECRVCGDKASGFHYTVHACEGCKGFFRRTIRMKLEYEKCERSCKIQKKNRNKCQYCRFQKCLALGMSHNAIRF	-0.567 ± 0.077
